Measured values taken from patent publication US20140286957A1 (Teva, published 2014).
Changes are numbered by the printed parent chain. Names and notes keep the numbering of the source. Read-outs that look alike come from different tables or passages of the source. Each block holds one binder with its values, some of them ahead of it.

How the values were obtained:
[1] = biological target: T1, Human CD1d/β2M (human, UniProt P15813 20-301; P61769 21-119); assay: SPR, transfection supernatant
T1 construct: also called hCD1d; recombinant human CD1d

[2] = biological target: T2, Human CD1d on cells (human, UniProt P15813 20-335); assay: cell-based or functional assay
T2 sequence (looked up): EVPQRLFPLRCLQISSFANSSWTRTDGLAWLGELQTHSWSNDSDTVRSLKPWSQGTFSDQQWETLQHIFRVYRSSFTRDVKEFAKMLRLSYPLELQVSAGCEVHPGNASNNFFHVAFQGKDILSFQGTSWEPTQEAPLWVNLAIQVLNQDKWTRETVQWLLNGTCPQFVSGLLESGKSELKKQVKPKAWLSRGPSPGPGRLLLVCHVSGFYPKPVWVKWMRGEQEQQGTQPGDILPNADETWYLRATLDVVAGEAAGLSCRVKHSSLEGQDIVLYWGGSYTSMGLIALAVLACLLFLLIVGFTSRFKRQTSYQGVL

[3] = biological target: T1, Human CD1d/β2M; assay: SPR
[4] = biological target: T2, Human CD1d on cells; assay: cell-based or functional assay; remark: listed apart in the source
[5] = biological target: T2, Human CD1d on cells; assay: cell-based or functional assay; remark: listed apart in the source
[6] = biological target: T2, Human CD1d on cells; assay: cell-based or functional assay; remark: listed apart in the source
[7] = biological target: T2, Human CD1d on cells; assay: cell-based or functional assay; remark: listed apart in the source
[8] = biological target: T1, Human CD1d/β2M; assay: SPR, Protein A purified IgG

Kd [1]: 9.97 nM
B1: 401.11.18 (antibody, V domains shown)
VH: QVQLVGSGGGLVKPGRSLRLSCAASGFTFDDYAMHWVRQAPGKGLEWVATIIWNSAIIGYADSVKGRFIVSRDNAKNSLYLQMNSLRAEDTALYYCAKDMCSSSGCPDGYFDSWGQGTLVTVSS
VL: DIQMTQSPSSVSASVGDRVTITCRASQHISSWLAWYQQKPGKAPNLLIYAASSLQSGVSSRFSGSGSGTDFTLTISSLQPEDFATYYCQQANRFPLTFGGGTKLEIK

binding result [1]: no binding
B2: 401.11.27 (antibody, V domains shown)
VH: B1 VH with I69T, V70I, T91M
VL: B1 VL with S59P

binding result [1]: no binding
B3: 401.11.16 (antibody, V domains shown)
VH: B1 VH with Q1E, G6E, K13Q, T91M
VL: B1 VL

NKT IL-4 EC50 (moDC) [2]: 0.799 ng/mL | NKT IL-13 EC50 (moDC) [2]: 3.87 ng/mL | Kd [3]: 0.173 nM | NKT IFN-γ EC50 (moDC) [4]: 9.11 ng/mL | NKT IL-4 EC50 (moDC) [4]: 3.44 ng/mL | NKT IL-5 EC50 (moDC) [4]: 8.49 ng/mL | NKT IL-13 EC50 (moDC) [4]: 20.6 ng/mL | NKT TNF EC50 (moDC) [4]: 5.59 ng/mL | NKT IFN-γ EC50 (THP-1) [5]: 5.45 ng/mL | NKT IL-4 EC50 (THP-1) [5]: 1.81 ng/mL | NKT IL-5 EC50 (THP-1) [5]: 4.48 ng/mL | NKT IL-13 EC50 (THP-1) [5]: 6.98 ng/mL | NKT TNF EC50 (THP-1) [5]: 3.54 ng/mL
B4: 401.11.157 (antibody, IgG4, V domains shown)
VH: B1 VH with S104G
VL: DIQMTQSPSSVSASVGDRVTITCRASQHISSWLAWYQQKPGKAPNLLIYAASSLQSGVPSRFSGSGSGTDFTLTISSLQPEDFATYYCQQANRFPLTFGGGTKLEIKR
notes: IgG4 (S228P)

Kd [1]: 0.951 nM
B5: 401.11.21 (antibody, V domains shown)
VH: B1 VH with Q1E, G6E, T91M
VL: B1 VL with N45K

Kd [1]: 0.977 nM
B6: 401.11.20 (antibody, V domains shown)
VH: B1 VH with T91M
VL: B1 VL with S59P

NKT IFN-γ EC50 (moDC) [6]: 0.658 ng/mL | NKT IL-13 EC50 (moDC) [6]: 1.52 ng/mL | NKT IFN-γ EC50 (moDC) [7]: 277 ng/mL | NKT IL-4 EC50 (moDC) [7]: 105 ng/mL
B7: 402.8.53 (antibody, IgG4, V domains shown)
VH: QVQLQESGPGLVKPSETLSLTCAVYGGSFSGYYWSWIRQPPGKGLEWIGEINHAGSTNYNPSLKSRVTISVDTSKNQFSLKLSSVTAADTAVYYCARGEIYDFWKSYLDVWGKGTTVTVSS
VL: QTVVTQEPSLTVSPGGTVTLTCASSSGAVSSGNFPNWFQQKPGQAPRALIFSASNKHSWTPARFSGSLLGGKAVLTLSGVQPEDEAEYYCLLYFGDTQLGVFGGGTKVTVLG

Kd [8]: 0.198 nM | NKT IFN-γ EC50 (moDC) [6]: 0.244 ng/mL | NKT IL-13 EC50 (moDC) [6]: 0.189 ng/mL | NKT IFN-γ EC50 (moDC) [7]: 24.7 ng/mL | NKT IL-4 EC50 (moDC) [7]: 26.8 ng/mL
B8: 402.8.60 (antibody, IgG4, V domains shown)
VH: B7 VH with K13R, A54S, W104Y, K105N, L108M
VL: B7 VL
notes: IgG4 (S228P)

Kd [8]: 0.344 nM | NKT IFN-γ EC50 (moDC) [7]: 25.9 ng/mL | NKT IL-4 EC50 (moDC) [7]: 1.01 ng/mL
B9: 402.8.87 (antibody, IgG4, V domains shown)
VH: B7 VH with W104Y, L108M
VL: B7 VL
notes: IgG4 (S228P)

Kd [8]: 0.587 nM | NKT IFN-γ EC50 (moDC) [6]: 0.516 ng/mL | NKT IL-13 EC50 (moDC) [6]: 0.663 ng/mL | NKT IFN-γ EC50 (moDC) [7]: 30.6 ng/mL | NKT IL-4 EC50 (moDC) [7]: 0.593 ng/mL
B10: 402.8.84 (antibody, IgG4, V domains shown)
VH: B7 VH with W104Y
VL: B7 VL
notes: IgG4 (S228P)

Kd [8]: 0.357 nM | NKT IFN-γ EC50 (moDC) [7]: 14.3 ng/mL | NKT IL-4 EC50 (moDC) [7]: 0.721 ng/mL
B11: 402.8.86 (antibody, IgG4, V domains shown)
VH: B7 VH with W104Y, K105N, L108M
VL: B7 VL
notes: IgG4 (S228P)
